Experimental data: patent US20240116985A1, “STAPLED PEPTIDES AND METHODS THEREOF” (priority 2020, published 2024)
Starred links: 1 amine or outer side, 2 acyl side, 3 side chain; linkers in the order of their positions; H or OH if unused. Positions of bridges follow the written chain, without caps; N, C: chain ends. Non-standard residues stand in square brackets, D forms with d. Primed or numbered codes have the meaning given here. PyrS2″ = (S)-3-amino-1-((pent-4-en-1-yloxy)carbonyl)pyrrolidine-3-carboxylic acid (stapling residue), C=CCCCOC(=O)N1CC[C@@](N[*:1])(C(=O)[*:2])C1; B5(18) = 2,2-bis(4-pentenyl)glycine (2-amino-2-(pent-4-en-1-yl)hept-6-enoic acid), stitching residue, C=CCCCC(CCCC=C)(N[*:1])C(=O)[*:2]; B5(4) = 2,2-bis(4-pentenyl)glycine = 2-amino-2-(pent-4-en-1-yl)hept-6-enoic acid (stitching residue), C=CCCCC(CCCC=C)(N[*:1])C(=O)[*:2]; B5(5) = 2,2-bis(4-pentenyl)glycine, 2-amino-2-(pent-4-en-1-yl)hept-6-enoic acid (stitching residue), C=CCCCC(CCCC=C)(N[*:1])C(=O)[*:2]; B5(8) = 2,2-bis(4-pentenyl)glycine (2-amino-2-(pent-4-en-1-yl)hept-6-enoic acid, stitching residue), C=CCCCC(CCCC=C)(N[*:1])C(=O)[*:2]; TfeGA = (S)-2-amino-3-((carboxymethyl)(2,2,2-trifluoroethyl)amino)propanoic acid, O=C([C@H](CN(CC(=O)[*:3])CC(F)(F)F)N[*:1])[*:2]; PyrS2 = (S)-3-amino-1-((pent-4-en-1-yloxy)carbonyl)pyrrolidine-3-carboxylic acid, C=CCCCOC(=O)N1CC[C@@](N[*:1])(C(=O)[*:2])C1; PyrS3 = (S)-3-amino-1-((hex-5-en-1-yloxy)carbonyl)pyrrolidine-3-carboxylic acid, C=CCCCCOC(=O)N1CC[C@@](N[*:1])(C(=O)[*:2])C1; B5(13) = 2-amino-2-(pent-4-en-1-yl)hept-6-enoic acid (two alkene chains), C=CCCCC(CCCC=C)(N[*:1])C(=O)[*:2]; B5(3) = 2,2-bis(4-pentenyl)glycine (stitching residue), C=CCCCC(CCCC=C)(N[*:1])C(=O)[*:2]; B5 = 2-amino-2-(pent-4-en-1-yl)hept-6-enoic acid, C=CCCCC(CCCC=C)(N[*:1])C(=O)[*:2]; Trp(5-Cl) = N[C@@H](Cc1c[nH]c2ccc(Cl)cc12)C(=O)O; Phe(2-Cl) = N[C@@H](Cc1ccccc1Cl)C(=O)O; 2Nal = N[C@@H](Cc1ccc2ccccc2c1)C(=O)O; Phe(2-Me) = Cc1ccccc1C[C@H](N)C(=O)O; Bta = N[C@@H](Cc1csc2ccccc12)C(=O)O; αAllylPro = C=CC[C@@]1(C(=O)O)CCCN1; tBuAla = CC(C)(C)C[C@H](N)C(=O)O; 2Thi = N[C@@H](Cc1cccs1)C(=O)O; 3Thi = N[C@@H](Cc1ccsc1)C(=O)O; S8 = C=CCCCCCC[C@](C)(N)C(=O)O; hLeu = CC(C)CC[C@H](N)C(=O)O

B1: I-712 (peptide)
peptide: Ac-[αAllylPro]D[tBuAla][B5(3)]DEAAFN[S8]F[Bta]-NH2
modifications: staple 1-4, 4-11
B2: I-713 (peptide)
peptide: Ac-[αAllylPro]D[tBuAla][B5(3)]DEAAFN[S8]F[Bta]-NH2
modifications: staple 1-4, 4-11
B3: I-714 (peptide)
peptide: Ac-[αAllylPro]DI[B5(3)]DEAAFN[S8]F[Bta]-NH2
modifications: staple 1-4, 4-11
B4: I-715 (peptide)
peptide: Ac-[αAllylPro]DI[B5(3)]DEAAFN[S8]F[Bta]-NH2
modifications: staple 1-4, 4-11
B5: I-716 (peptide)
peptide: Ac-[αAllylPro]DL[B5]DEAAFN[S8][3Thi][Bta]-NH2
modifications: staple 1-4, 4-11
B6: I-717 (peptide)
peptide: Ac-[αAllylPro]DL[B5]DEAAFN[S8][3Thi][Bta]-NH2
modifications: staple 1-4, 4-11
B7: I-1002 (peptide)
peptide: Ac-[αAllylPro]D[tBuAla][B5(18)]D[TfeGA]ALFN[PyrS2″][Phe(2-Cl)][Bta]Q-NH2
modifications: staple 1-4, 4-11
B8: I-1004 (peptide)
peptide: Ac-[αAllylPro]D[tBuAla][B5(18)]D[TfeGA]ASFN[PyrS2″][Phe(2-Cl)][Bta]Q-NH2
modifications: staple 1-4, 4-11
B9: I-1007 (peptide)
peptide: Ac-[αAllylPro]D[tBuAla][B5(18)]D[TfeGA]LAFN[PyrS2″][Phe(2-Cl)][Bta]Q-NH2
modifications: staple 1-4, 4-11
B10: I-1008 (peptide)
peptide: Ac-[αAllylPro]D[tBuAla][B5(18)]D[TfeGA]FAFN[PyrS2″][Phe(2-Cl)][Bta]Q-NH2
modifications: staple 1-4, 4-11
B11: I-1010 (peptide)
peptide: Ac-[αAllylPro]D[tBuAla][B5(5)]D[TfeGA]IAFN[PyrS2″][Phe(2-Cl)][Bta]Q-NH2
modifications: staple 1-4, 4-11
B12: I-1011 (peptide)
peptide: Ac-[αAllylPro]D[tBuAla][B5(18)]D[TfeGA]KAFN[PyrS2″][Phe(2-Cl)][Bta]Q-NH2
modifications: staple 1-4, 4-11
B13: I-1016 (peptide)
peptide: Ac-[αAllylPro]D[tBuAla][B5(18)]DNAAFT[PyrS2″][Phe(2-Cl)][Bta]S-NH2
modifications: staple 1-4, 4-11
B14: I-1017 (peptide)
peptide: Ac-[αAllylPro]D[tBuAla][B5(18)]DDAAFS[PyrS2″][Phe(2-Cl)][Bta]Q-NH2
modifications: staple 1-4, 4-11
B15: I-1019 (peptide)
peptide: Ac-[αAllylPro]D[tBuAla][B5(18)]DDAAFS[PyrS2″][Phe(2-Cl)][Bta]S-NH2
modifications: staple 1-4, 4-11
B16: I-776 (peptide)
peptide: Ac-[αAllylPro]D[tBuAla][B5(13)]DDAAFN[PyrS3][3Thi][Bta]H-NH2
modifications: staple 1-4, 4-11
B17: I-779 (peptide)
peptide: Ac-[αAllylPro]D[tBuAla][B5(13)]DDAAFN[PyrS2][2Thi][Bta]H-NH2
modifications: staple 1-4, 4-11
B18: I-782 (peptide)
peptide: Ac-[αAllylPro]D[tBuAla][B5(13)]DDAAFN[PyrS2][Phe(2-Me)][Bta]H-NH2
modifications: staple 1-4, 4-11
B19: I-788 (peptide)
peptide: Ac-[αAllylPro]D[hLeu][B5(3)]DDAAFN[PyrS2][3Thi][Bta]H-NH2
modifications: staple 1-4, 4-11
B20: I-790 (peptide)
peptide: Ac-[αAllylPro]D[tBuAla][B5(3)]DDAAFN[PyrS2][3Thi][2Nal]H-NH2
modifications: staple 1-4, 4-11
B21: I-791 (peptide)
peptide: Ac-[αAllylPro]D[tBuAla][B5(5)]DDAAFN[PyrS2][3Thi][Trp(5-Cl)]H-NH2
modifications: staple 1-4, 4-11
B22: I-792 (peptide)
peptide: Ac-[αAllylPro]D[tBuAla][B5(3)]DDAAFN[PyrS2][3Thi]WH-NH2
modifications: staple 1-4, 4-11
B23: I-793 (peptide)
peptide: Ac-[αAllylPro]D[tBuAla][B5(3)]DDAAFN[PyrS2][Bta][Bta]H-NH2
modifications: staple 1-4, 4-11
B24: I-695 (peptide)
peptide: Ac-[αAllylPro]D[tBuAla][B5(8)]DDAAFN[PyrS2″][3Thi][Bta]H-NH2
modifications: staple 1-4, 4-11
B25: I-698 (peptide)
peptide: Ac-[αAllylPro]D[tBuAla][B5(8)]DEAAFN[PyrS2″][3Thi][Bta]H-NH2
modifications: staple 1-4, 4-11
B26: I-699 (peptide)
peptide: Ac-[αAllylPro]DI[B5(8)]D[TfeGA]AAFN[S8]F[Bta]Q-NH2
modifications: staple 1-4, 4-11
B27: I-700 (peptide)
peptide: Ac-[αAllylPro]DI[B5(8)]D[TfeGA]AAFN[S8][3Thi][Bta]Q-NH2
modifications: staple 1-4, 4-11
B28: I-702 (peptide)
peptide: Ac-[αAllylPro]DI[B5(8)]D[TfeGA]AAFN[S8][3Thi][Bta]H-NH2
modifications: staple 1-4, 4-11

Each binder was assayed against full-length beta-Catenin (Uniprot ID P35222) (Homo sapiens (Human)) (UniProt P35222) (assay: fluorescence polarization competition; peptide titrated against full-length beta-catenin + 5FAM-TCF4(10-53)).
Target sequence in this assay (P35222 whole entry, the tested form may be a part): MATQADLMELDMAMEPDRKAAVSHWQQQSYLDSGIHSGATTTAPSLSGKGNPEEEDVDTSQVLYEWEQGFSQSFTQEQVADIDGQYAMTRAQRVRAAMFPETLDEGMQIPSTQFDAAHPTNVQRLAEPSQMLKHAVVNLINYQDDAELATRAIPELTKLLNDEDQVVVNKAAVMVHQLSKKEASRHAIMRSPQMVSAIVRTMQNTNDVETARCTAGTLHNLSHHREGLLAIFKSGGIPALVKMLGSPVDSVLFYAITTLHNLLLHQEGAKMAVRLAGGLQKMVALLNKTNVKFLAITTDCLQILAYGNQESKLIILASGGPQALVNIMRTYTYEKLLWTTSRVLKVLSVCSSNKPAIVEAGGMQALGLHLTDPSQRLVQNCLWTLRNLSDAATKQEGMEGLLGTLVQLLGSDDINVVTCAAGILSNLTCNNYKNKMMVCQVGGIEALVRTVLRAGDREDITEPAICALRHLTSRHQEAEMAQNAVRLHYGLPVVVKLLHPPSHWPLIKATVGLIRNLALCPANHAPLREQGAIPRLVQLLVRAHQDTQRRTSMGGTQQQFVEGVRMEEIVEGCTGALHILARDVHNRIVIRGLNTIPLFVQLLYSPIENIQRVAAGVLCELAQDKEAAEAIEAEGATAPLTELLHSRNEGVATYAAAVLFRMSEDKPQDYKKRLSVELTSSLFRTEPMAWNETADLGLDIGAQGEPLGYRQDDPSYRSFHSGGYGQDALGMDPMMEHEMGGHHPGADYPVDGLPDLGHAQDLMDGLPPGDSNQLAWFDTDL

IC50 | Binder
92 nM | B1
70 nM | B2
131 nM | B3
60.5 nM | B4
91 nM | B5
39 nM | B6

These binders were tested against Bcat-Halo (UniProt P35222) (assay: NanoBRET Abs IC50, Bcat-Halo/TCF4-Luc in HEK293 cells).
Bcat-Halo, sequence (P35222 whole entry): as the sequence (P35222 whole entry, the tested form may be a part) above

IC50 | Binder
29800 nM | B7
10600 nM | B8
24900 nM | B9
14000 nM | B10
13300 nM | B11
20800 nM | B12
21400 nM | B13
8900 nM | B14
9600 nM | B15

These binders were tested against full-length beta-Catenin (Uniprot ID P35222) (Homo sapiens (Human)) (UniProt P35222) (assay: fluorescence polarization competition; peptide displaces 5FAM-TCF4(10-53) from full-length beta-catenin).
Target sequence in this assay (P35222 2-781 limits assumed): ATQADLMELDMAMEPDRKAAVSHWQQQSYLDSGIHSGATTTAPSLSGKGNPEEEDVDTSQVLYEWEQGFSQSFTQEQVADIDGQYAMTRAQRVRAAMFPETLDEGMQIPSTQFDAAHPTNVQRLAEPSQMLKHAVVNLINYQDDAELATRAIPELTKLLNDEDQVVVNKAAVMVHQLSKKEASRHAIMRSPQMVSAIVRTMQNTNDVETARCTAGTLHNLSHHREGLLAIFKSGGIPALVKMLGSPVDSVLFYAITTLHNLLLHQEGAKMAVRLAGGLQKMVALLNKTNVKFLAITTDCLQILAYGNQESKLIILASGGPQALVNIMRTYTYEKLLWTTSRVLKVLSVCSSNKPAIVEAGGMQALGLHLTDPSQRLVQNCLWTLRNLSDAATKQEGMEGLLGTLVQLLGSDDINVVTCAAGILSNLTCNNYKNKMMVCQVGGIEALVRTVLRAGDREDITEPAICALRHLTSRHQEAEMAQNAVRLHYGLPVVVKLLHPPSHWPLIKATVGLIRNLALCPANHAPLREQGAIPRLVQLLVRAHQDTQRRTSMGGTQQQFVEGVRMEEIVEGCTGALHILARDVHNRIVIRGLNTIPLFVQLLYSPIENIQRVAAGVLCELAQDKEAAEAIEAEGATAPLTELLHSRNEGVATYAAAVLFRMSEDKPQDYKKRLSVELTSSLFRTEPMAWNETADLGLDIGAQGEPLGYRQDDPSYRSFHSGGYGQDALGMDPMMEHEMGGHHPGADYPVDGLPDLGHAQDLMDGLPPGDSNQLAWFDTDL

IC50 | Binder
5 nM | B16
5 nM | B17
6 nM | B18
5 nM | B19
24 nM | B20
310 nM | B21
20 nM | B22
14 nM | B23

The binders below were run against full-length beta-Catenin (Uniprot ID P35222) (Homo sapiens (Human)) (UniProt P35222) (assay: fluorescence polarization competition; displaces 5FAM-TCF4(10-53) from full-length beta-catenin).
Target sequence in this assay (P35222 2-781 limits assumed): as above

EC50 | Binder
9 nM | B7
5 nM | B8
6 nM | B9
9 nM | B10
8 nM | B11
5 nM | B12
8 nM | B13
5 nM | B14
5 nM | B15

These binders were tested against full-length beta-Catenin (Uniprot ID P35222) (Homo sapiens (Human)) (UniProt P35222) (assay: fluorescence polarization competition; full-length beta-catenin, competitor 5FAM-TCF4(10-53) probe).
Target sequence in this assay (P35222 2-781 limits assumed): as above

EC50 | Binder
5 nM | B16
5 nM | B17

What follows are binders tested against full-length beta-Catenin (Uniprot ID P35222) (Homo sapiens (Human)) (UniProt P35222) (assay: fluorescence polarization competition: peptide titrated against 10 nM full-length beta-catenin + 10 nM 5FAM-TCF4(10-53) probe).
Target sequence in this assay (P35222 2-781 limits assumed): as above

EC50 | Binder
6 nM | B18
5 nM | B19
24 nM | B20
310 nM | B21
20 nM | B22
14 nM | B23

Each binder was assayed against full-length beta-Catenin (Uniprot ID P35222) (Homo sapiens (Human)) (UniProt P35222) (assay: fluorescence polarization competition; full-length beta-catenin; competitor displaced: 5FAM-TCF4 10-53).
Target sequence in this assay (P35222 2-781 limits assumed): as above

IC50 | Binder
5 nM | B24
5 nM | B25
43 nM | B26
49 nM | B27
76 nM | B28

The binders below were run against full-length beta-Catenin (Uniprot ID P35222) (Homo sapiens (Human)) (UniProt P35222) (assay: fluorescence polarization competition; full-length beta-catenin with 5FAM-labeled TCF4 residues 10-53 probe as competitor).
Target sequence in this assay (P35222 whole entry, the tested form may be a part): as the sequence (P35222 whole entry, the tested form may be a part) above

EC50 | Binder
92 nM | B1
70 nM | B2
131 nM | B3
60.5 nM | B4
91 nM | B5
39 nM | B6

These binders were tested against full-length beta-Catenin (Uniprot ID P35222) (Homo sapiens (Human)) (UniProt P35222) (assay: fluorescence polarization competition; full-length beta-catenin + 5FAM-TCF4(10-53) probe; peptide titrated).
Target sequence in this assay (P35222 2-781 limits assumed): as the sequence (P35222 2-781 limits assumed) above

EC50 | Binder
5 nM | B24
5 nM | B25
43 nM | B26
49 nM | B27
76 nM | B28

Each binder was assayed against full-length beta-Catenin (Uniprot ID P35222) (Homo sapiens (Human)) (UniProt P35222) (assay: fluorescence polarization competition; 10 nM full-length beta-catenin + 10 nM 5FAM-TCF4(10-53) probe).
Target sequence in this assay (P35222 whole entry, the tested form may be a part): as the sequence (P35222 whole entry, the tested form may be a part) above

IC50 | Binder
9 nM | B7
5 nM | B8
6 nM | B9
9 nM | B10
8 nM | B11
5 nM | B12
8 nM | B13
5 nM | B14
